The chains are these.
B1: GST-HA-ATG16L1-231–607 T300, purified from human cells [human] / TMEM59 263–281 peptide, wild type (19-amino acid peptide that includes the ATG16L1-binding motif) [modified: Immobilised through the N-terminus by a long spacer (Tds). Some … (parent complex)
chain 1: PLPVEQDDDIEVIVDETSDHTEETSPVRAISRAATKRLSQPAGGLLDSITNIFGRRSVSSFPVPQDNVDTHPGSGKEVRVPATALCVFDAHDGEVNAVQFSPGSRLLATGGMDRRVKLWEVFGEKCEFKGSLSGSNAGITSIEFDSAGSYLLAASNDFASRIWTVDDYRLRHTLTGHSGKVLSAKFLLDNARIVSGSHDRTLKLWDLRSKVCIKTVFAGSSCNDIVCTEQCVMSGHFDKKIRFWDIRSESIVREMELLGKITALDLNPERTELLSCSRDDLLKVIDLRTNAIKQTFSAPGFKCGSDWTRVVFSPDGSYVAAGSAEGSLYIWSVLTGKVEKVLSKQHSSSINAVAWSPSGSHVVSVDKGCKAVLWAQY
chain 2: TAVEQYVPSEKLSIYGDLE
B2: GST-HA-ATG16L1-320–607 (recombinant WD40 domain fused to GST and the HA tag) [human] / TMEM59 263–281 peptide, wild type (19-amino acid peptide that includes the ATG16L1-binding motif) [modified: Immobilised through the N-terminus by a … (parent complex)
chain 1: AHDGEVNAVQFSPGSRLLATGGMDRRVKLWEVFGEKCEFKGSLSGSNAGITSIEFDSAGSYLLAASNDFASRIWTVDDYRLRHTLTGHSGKVLSAKFLLDNARIVSGSHDRTLKLWDLRSKVCIKTVFAGSSCNDIVCTEQCVMSGHFDKKIRFWDIRSESIVREMELLGKITALDLNPERTELLSCSRDDLLKVIDLRTNAIKQTFSAPGFKCGSDWTRVVFSPDGSYVAAGSAEGSLYIWSVLTGKVEKVLSKQHSSSINAVAWSPSGSHVVSVDKGCKAVLWAQY
chain 2: TAVEQYVPSEKLSIYGDLE

The variants in the first test derive from B1. Description: peptide microarray; probe purified from human cells; mean ± s.d., n=9 replicas; parent: 100; read off a plot.
Turning to chain 2 K11A, the percent of parent is ~96 % of WT peptide (OD635, normalized values). As for chain 2 V7A, the percent of parent is ~140 % of WT peptide (OD635, normalized values). Take chain 2 Y6A, chain 2 E10A, chain 2 Y15A, chain 2 L18A: the percent of parent is ~3 % of WT peptide (OD635, normalized values). Consider chain 2 Y6A, for which the percent of parent was ~45 % of WT peptide (OD635, normalized values). In the case of chain 2 Y15A, the percent of parent is ~10 % of WT peptide (OD635, normalized values). Regarding chain 2 G16A, the percent of parent was ~160 % of WT peptide (OD635, normalized values). chain 2 L18A: the percent of parent is ~19 % of WT peptide (OD635, normalized values).

As for chain 2 E10A, the percent of parent is ~130 % of WT peptide (OD635, normalized values).

Variants of B1 are the subject of a further test. Description: peptide microarray; probe purified from human cells; mean ± s.d., n=9 replicas; parent: 9.3e+03; read off a plot.
With chain 2 Y6A, chain 2 E10A, chain 2 Y15A, chain 2 L18A, the response was ~400 a.u. (OD635).

A further test covers variants of B1. Description: peptide microarray; probes purified from human cells; mean ± s.d., n=54; values normalised to the A300 ligand (= 100); parent: 160; read off a plot.
In the case of chain 1 T70A, the response was ~100 OD635, normalized values (% of the A300 ligand signal).

Variants of B2 are the subject of another test. Description: peptide microarray; probe expressed in bacteria; mean ± s.d., n=9 replicas; parent: 100; read off a plot.
Consider chain 2 Y6A, chain 2 E10A, chain 2 Y15A, chain 2 L18A, for which the percent of parent was ~2.5 % of WT peptide (OD635, normalized values).

Source of the values: PMC4899871 (2016).
